{
  "source": "patent US20120184485A1",
  "key": {"scavenger receptor CD36 [1]": {"biological_target": "scavenger receptor CD36", "assay": "flow cytometry on CD36-transfected CHO cells, rAv17 at 2.5 µg/ml; baseline 20%"}, "scavenger receptor CD36 [2]": {"biological_target": "scavenger receptor CD36", "assay": "flow cytometry on CD36-transfected CHO cells, rAv17 at 5 µg/ml; baseline 20%"}},
  "data": [
    {"substance": "recombinant Acanthocheilonema viteae cystatin (rAv17)", "values": [
      {"measurement": "fluorescence positive cells", "setting": "scavenger receptor CD36 [1]", "value": 71, "unit": "%"},
      {"measurement": "fluorescence positive cells", "setting": "scavenger receptor CD36 [2]", "value": 89, "unit": "%"}
    ]}
  ]
}
